The results in this text go back to the domain aggregation screens of Martell et al. (2025).
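Note: 20 min heating vs room temperature control held 20 min.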

This series is described as follows: soluble fraction after stress (log2 fold change); higher = more stays soluble; pooled small domains, quantitative proteomics. Particulars: stress: 75 degC.
For the sequence “HMPRYSGMFAAWLHKALARMGKSMSDSARSAFTERVELDYSSANNELQKLSLLVGDRKVITEADVMRAIG”, the “soluble fraction (log2)” value was -0.86.
Consider “HMPSALGDKIRAARKALKLSLEDLAEKVSSSKSYMWELENRDEPNPGADLLMRIAAALNVTTEHLLGP”, for which the “soluble fraction (log2)” value was -0.28.
Consider “HMPSDLQATLRAVQGMLQGVEGVDARLAGQRILLEGDSADARARERAAAIAGIFPGVVIDFVG”, for which the “soluble fraction (log2)” value was -0.263.
For the sequence “HMPSEAVQNIIGNVKSKRRVATIGQARGLASNVIKEGKFDNVSNTAMVNRLIDLGIISNSIGYQ”, the “soluble fraction (log2)” value is -0.0616.
For “HMPSEQGANKARDIIFRHHMKVDVWVGSWENARNYAEQAIKQGVKVIISRGGTAALLRHSLDTAIIKVR”, the “soluble fraction (log2)” value was 0.14.
For “HMPSGLFEPIKKSELSIESIDLLKDQIRAFKQADIRITFGFLLDLITKGENPAYVNASKLFEQAWER” the value was 0.141; for “HMPSPSTLAKVDPFLLVTNADSLLMARPDDSELRAAIITAHINLAKTNNSVDHYKEVLKIEPQNALANYN”, 0.17.
For “HMPSPTPEQVLKAFTDAAMQKNTVEELKQAFAKAWKMLEGTPEQHKAQDVYNIRRDELEGAA”, the “soluble fraction (log2)” value is 0.376.
For “HMPSSIEGIEKYLGSGMIRGIGAVYAKRLVKQFGKDVFDIIEETPERLREVEGIGPIRAARIISGWADQ” the value was -0.363; for “HMPTITSPMVGTFYRAPSPGAAPFIEVGDTVKKGQVIGIIEAMKLLNEVEADKDGVVQAFAAENGEL”, -0.335; for “HMPTLNIVDGHIAASDGVRILSIHNVTGRRYATSSKLPAGIYIVVLMPAKAETPLTVKVIVEA”, -1.42.
On to “HMPTMTDIPIKIIRSRRRTLAIEVREGGEVIVRAPLYSRKAEIDAFVKAHENWIITKYNLMITKQN”, for which the “soluble fraction (log2)” value is -3.51.
Turning to “HMPTPRVPMSKQRQILQLLQDGHLSTREIAAALHISKTSVGDIAKAARLAGLDWEAASKLSDEELSARIYK”, the “soluble fraction (log2)” value was -0.36.
As to “HMPTSPKANFLKELPQEFTRKQAVTIGDKLNIKERTVDNYLAKLEQAGYLVKPKAGYYQKIKS”, the “soluble fraction (log2)” value was -0.0924.
Take “HMPTTTFENLPDAKKKTIIAALLKEFSQSPLSKAQVAPIVKESQIARGAFYKYFVDLTDAYTYLYRQ”: the “soluble fraction (log2)” value was -0.0519.
Turning to “HMPTVLKQGSTGQEVKELQQALSKLGYRVTVTGEFDTATHYGVVRFQRKHRLTIDGIVGPQTLSKIRAHQK”, the “soluble fraction (log2)” value is -2.56.
“HMPVAPTYALTVKTDPPSANVRLLNSPTPYQPGVRLPSGNYDIEVTQSGYATRKESVRIADRDVALNIAL”: the “soluble fraction (log2)” value turned out to be 0.265.
For the sequence “HMPVASNRDVNLDIGERVFVQEWAPNRTARVQYRGSPWEARLAPGAPAAAGEHRVSAVEGNWLVLEPA”, the “soluble fraction (log2)” value is -0.139.
Turning to “HMPVEFVKISIKPGHPWENQFVRDIVSLPDLLMVLILRGEERIIPNGNTKILVGDKIVLSALSPG”, the “soluble fraction (log2)” value was -2.2.
Take “HMPVEHVWHIAENGQTSGPYSKARMGRMAQEGQLTRDTHVWTPGQDGWMRAGDVTELAQLFT”: the “soluble fraction (log2)” value stood at 0.0383.
As to “HMPVFSLTPRELEILEWMSTPNTYRQIAAQLSVSEETVRSHAKNILEKMRQPNRAQAVLAAVKMGLIKL”, the “soluble fraction (log2)” value is -1.57.
Regarding “HMPVISGQDLRVLIRDTGRERDQGISFLDDGTMVVVEDARRLIGQEVTATVTRVHQTQTGRIVFAHLSN”, the “soluble fraction (log2)” value was -1.25.
Consider “HMPVPSPAEQTATQLANIERHTGITVDGWTRAIAEAGAAKHGEIVAWLKQQGLTHGNANALAHAVRARQSG”, for which the “soluble fraction (log2)” value was 0.581.
“HMPVQSNRDALLDIGQTLQVQAWDAQGSARVSYRGSDWTAEFRGPGAAAPGLHRIIAVQGNRLIVEPA”: the “soluble fraction (log2)” value worked out at 0.342.
With “HMPVRIYEISKKLGLENKEVLATAKSLGIAAAKVPSSSLDKITAEYLEEEILKSHPEVAARLK”, the “soluble fraction (log2)” value was found to be 0.142.
Consider “HMPVYEEEVPAALDGQRLDRVVAMVTGLSRSEVGALLAAGAVTVDGTTPAKGSVRLAAGSIVSVTVS”, for which the “soluble fraction (log2)” value is -0.357.
For “HMQAATGVVTASVLNIRQGPGTNYTKVGSLLKGAQVEIVGQNGAWSKIRLKSGITGWVNSSYLKTST” the value was -1.84; for “HMQAGPEDIIRAKLKTAMPEAQIISIRPTPAGLYQVNAKGYESVFVTADGRYLFQGDLLEIQGDRIVNL”, -0.186; for “HMQAKNGTVTGSVVNVRGGAGTQYAVKGKASRGTKVTILGQQSSWLNVRLDNGVTGWIHADYVQISE”, 0.592.
“HMQAPHLALSPREFQVLQGLLAGDALDIIAERLHLSAKTVSNHQTLIRQKLGVGNAVELLRYAQLHRL”: the “soluble fraction (log2)” value is -2.49.
For “HMQAPIFMNETDGKWYFREKYLNDNHEIAYRVHPEGYDQMEDALRNSVNALNEFAAEMKELRKQV” the value was -0.0803; for “HMQAPVVNHDLIKSFERQWREIKATAKGKVRSVNLSDARSILQSFLNTLQKGPGTDSLISSVQNELSLIA”, -0.17; for “HMQARDQNVDEGKALLEKEFSRLALENLDRDKLANAVNYPTRDDMYAAIGAGDLRVGQVLHQAQQLF”, 0.226.
For “HMQASTGNVNTETLNLRKEASTSADILKLLSQGDEVEIVSESNGWYKVKYKDTEGFVSKEYITVN” the value was 1.02; for “HMQATETFSLIVPMSSAGNRLDVVLSELLPNFSRKKIQDAIKNGDATLNGKAPKIRDKVYGGENITITLIL”, -2.55; for “HMQAVDPLELRAGDFVVHEQHGIGRYVEMVQRTIGGITREYLVIEYAPAKRGQPNDRVFVPTDTLEQVS”, -0.654.
For “HMQAVKQIKVERGMTLEKIAQSEFGDSTRWGEIVEVNNLRAPYISDDPTETRDGVLKPGSNLLIPIP” the value was -0.0397.
For the sequence “HMQDEAQLSMSNKYIFEGNSIVKDNFIEAEKKYRLGVSAKPNNAVGSYNLANAYYNSKLYDEAMLRLL”, the “soluble fraction (log2)” value was determined as 0.379.
For “HMQDEREEIAVEDVVGMPLWQARKVIADQGFRVLDDGAGDIVIAQMPSGGGKLIEGGQVMLYTYTD” the value was 0.687; for “HMQDFEEILKNAKIEDFKHTQTGEDLKVLKIEDKIEDFKGFNAYLVKNQIAYYSKFARGFVVKNIEKLQGV”, 0.202.
With “HMQDFEQNLFDGKSIYDRMLSKFSLHNVDVKQLVAHFKRKDTEQFFADIGRGLITSAQMLGFLQT”, the “soluble fraction (log2)” value is -0.0166.
Consider “HMQDLVAVPALTGLTENDAINKAKANNLIAVVSEYKTENSVEPGKVLEQDPESSTEVKKGTIIKLVVS”, for which the “soluble fraction (log2)” value came to 0.756.
For “HMQDQVTLIVQVNGKLRGQISISTDATKELIEQTALANENVQKFVDGQSIKKIIIVPGRLVNIV”, the “soluble fraction (log2)” value was -0.939.
For the sequence “HMQDRDKNVPAGKELLDNEIARLNMSLKQVEQFALPRYNLKTLEDLYSGIGSGDIRLNHLINFLQSKLI”, the “soluble fraction (log2)” value worked out at 0.338.
Regarding “HMQDREIHIHAGREVLEKELSRLSLHLKNTNLQEYAARFNVKTAEDILAGIGAGDIRPAHVVNLIADKL”, the “soluble fraction (log2)” value was -0.0928.
For “HMQDSSGENNPQSKLTQQQVDLLMKDLKETNVEFDKLAEKYNVSIKTIRNVNTGIAWRKNDITYPIREP”, the “soluble fraction (log2)” value was -0.407.
For “HMQDTQAEEGETLLDALRRIHPESSTGTLRRMLTQGRVQLDGDSVHAAKTVLSAGQRVEVVAR” the value was -0.143; for “HMQDTTLTSQILRVPSSVNINDLANVLKSLAGKNTVVAPYKAANTIIITGYAPNVRRVLSLANELIPRLDV”, -1.18; for “HMQEAGLITQRIREMREKENWTQEYMAEQLGMSENGYAKIERGESNLSLKRLQQIADIFEVESAELLK”, 0.00448.
Regarding “HMQEDKSKYLFQRGTAITVLRPAGIVRIGKERVDAVSNGSYIDRGVAVRVIEVEGTRVVVEPVPE”, the “soluble fraction (log2)” value is 0.0187.
In the case of “HMQEEMIRGDIKLNTVMQTVHLAVGTETERNWQPVETTAKEFELLKLLMENPGVTLKKEYLFHMLI”, the “soluble fraction (log2)” value is -0.101.
As for “HMQEESISWKEFLELDIIGDKKKRLKVYDLFHLGYGNAKTLFKRLNMVGISREMIEKELENEGY”, the “soluble fraction (log2)” value is -1.39.
On to “HMQEKIREVANRIRELRESLEVSPEEMADHLKVTIGTYIEYERGEADIPASVLFGIAHRLNVDMAVLL”, for which the “soluble fraction (log2)” value is -1.36.
Regarding “HMQEKLELIIPVSSIGKRADVAIQDLLSSYSRAKIQEWIKSGFILLESKKISPKDIFMGGERVFIDIQQDE”, the “soluble fraction (log2)” value is -1.86.
“HMQELVPGKVFEGTVTEMKNGQVTLGLSDGKTISARMEQGVSLAKGQPMLFEVKSNTGEQIAIRPVVL”: the “soluble fraction (log2)” value came to 0.263.
For “HMQENKVLEGKVLEKKKKKVFVDLSPFGVGVIRGVNYLEAKNELKDIEEGDNIKVRVLEIDNENGFIELAL” the value was -0.121.
Consider “HMQERQREGFVQQLRGKYSGQVVMRLFPELQGKALGEFMRKFEAQWEDHEAVLAAMEAHEIESRLKVFK”, for which the “soluble fraction (log2)” value was -1.57.
In the case of “HMQETALANFETNEGVQKVKQYVQENVPSLRGSNIVGVWTSYTPEGLTNYRTRFLTQDGQFVEVNLAYQ”, the “soluble fraction (log2)” value is -0.203.
For “HMQETIDVAALRVGMFVHLDLGWLAHPFPLSSFRISSEDQISTIRALGLKRVRWSSQHSELG” the value was -1.29.
As to “HMQETKDEGAQVLLNKINALVAAVQGQIITPEEAAIKLATDGDLDLDVDARVAAIEEFNKKLSEAQNN”, the “soluble fraction (log2)” value amounted to 0.101.
As for “HMQEVILEKIQLTYLSADKLSKMAEQFSIPVKMYWVDENPMMLMVMGNESDIATFKKVLTQIDIPENKS”, the “soluble fraction (log2)” value is -0.268.
Take “HMQFHQDNYALEFIRDLQPVDGAIILSRFKQFDLVELEKAKKIKFSDEHMAWTLYDYDIKKIN”: the “soluble fraction (log2)” value was -1.95.
Take “HMQFLKPQDVLFLLKLVVLKGPASIFPAVPESLGLSKAEVHNSAKRVRGARLLPHDSWNPLRKNLLEFL”: the “soluble fraction (log2)” value was -0.488.
“HMQFQVHEIKGKEYYIHVVEKGNTLYAISRMYSVPIETLKEENPRLNTTELTIGDRLLIPLDEVKRKNIE”: the “soluble fraction (log2)” value is -0.833.
Turning to “HMQFYSGLEARLMDPNTPEVFDDPISLMAFLQQKNISRVELEDNLLLPYLKEMAGQPIPKAELLEIIRK”, the “soluble fraction (log2)” value was -0.815.
As for “HMQGDHELSQRILSYLSEQGGSSPLTDKASPEEIYRIFRVSKKKYKQALGNLYKSKSIIILADKIQLL”, the “soluble fraction (log2)” value is -3.2.
For the sequence “HMQGEDEILKIHEALEELAQIDARLVRVVEMRYFVGLSNQEIADSLGVTTRTVERDWEKARTFLFNALHP”, the “soluble fraction (log2)” value is -1.86.
Regarding “HMQGISGIERSLLDALAFEPAGLDALQARTGLDTPTLQALLMGLELQGHVARLPGSLFQRLVR”, the “soluble fraction (log2)” value was -0.9.
For the sequence “HMQGVTVPDLTRVSLEEAVATISSLGLRYEISDRRSNAAFPANYVLDQAPGANTIVKPNRKVYLTVNAA”, the “soluble fraction (log2)” value was -0.162.
As to “HMQGWREWDYSADLYINARVGGKIEPTENSPISRVYELDEPVSVVAFTSTRYFKLSSGDYIFAEYLSAQKV”, the “soluble fraction (log2)” value was -4.29.
